Test results from article PMC8954249, “The C-Terminal Domain of Liquorilactobacillus nagelii Dextransucrase Mediates the Production of Larger Dextrans Compared to Liquorilactobacillus hordei” (Gels, 2022).

B1: dsr3510 (full-length L. nagelii TMW 1.1827 dextransucrase) (Liquorilactobacillus nagelii) (protein)
chain: NVKISADSTPQNVVEQSSSSNDSSSNSSSSSKTSSSSKVNTDQVNEDTSSSITKENNISAMPKKQTQLTTATTAADKVTQTTDTSATTTAATNQQKNNQVESSSQSSSEQASSTISNNTTVSNTDSQQSSSQVANVTGGKYVDSNETWSYVDSQGNKIKGLNKVDGNLQYFDETSGAQIKGEYEKVGETTYYFDKNSGNAIPYTLTSDGKTTAYQADGQPAGAGFFTNQDGEIYYFDADGSYKTGLQTLNGTTYYFDSNGYLSKDTVENVDGKTYYSQADTGKTIQLTSQNLPTQTSTAKEVASFAAHNVAYSYDTKSFENINGYLTADSWYRPTYILNDGQLWIKSTSTDFRPLLMAWWPSKSIEADYLNYMIEQGIISSTRNFSANDDSLVLNSAAQNVQIALEKNLTMTGSVNWLRQIMQSFVKKEAIWNKTSEDPSSDGLSSLQGGFLTYQNSKLTPNANSDYRILGYVPSYIKNSNDKGSEFLLANDIDNSNPVVQAEELNWLYYLMNFGSITADDSSANFDGIRVDAVDNVDADLLKIAADYFKDAYQVNQNDQNADSHLSILEDWSNNDPQYVYDQGANQLTMDDYFVGQMNYSLENAPGSNSKMERFVQWYLINRANDSTEDTAIPNYTFVRAHDSNSQDQIQKAIQAATGGEYGVFTWEQLQQGLTLYYADQASTEKKYNRYNIPSAYAMLLTNKDTVPRVYYGDLYLEGGQYMANKTIYYDTITNLLASRVKYVAGGQTMSVDGNDVLTSVRFGKGAMTASDQGTSETRTEGVGVIVSNNTSLKLKDGDQVVLHMGVAHRNQAYRAAVLTTKDGIINYTSDDNAPIAYTDNNGDLVFTNQNLLINGVEEANTSIQGYANPDVTGYLAVWVPVGAATTQDARTAATTDSSTDGKTLHSNAALDSNVIYEGFSNFISYPDSHDDNTNVVIAKNTDLFKALGITSFELAPQYRTSGDKTFLDSTIDNGYAFTDRYDLGYGTPTKYGTVDDLRNVIKALHAAGIQAIADWVPDQIYNLPTEELVTVNRTDERGNQVASSKIHDLLYVANTIGGGDYQKKYGGAFLEVLETEYPDLFKEIQASTGKTIDPSQKITSWSAEYFNGTNILGRGSDYVLRSDDNQQYFYVGDDSSEVQKFLPASLVAENDRQKYSLGDQSANNYFVQENLNGKWYLIDPLNNQKQTGFQYIPDQIKTVYYNAQGEMQYGQQFLGGHWYLFDSRTGAMETGLQYIGNQHKTVYYNVQGQMQYGQQNVNGHWYLFDSKTGAMKTGWQYISNQHKTVYYNTQGQMQYGQQNVNGHWYLFDSKTGAMKTGWQYISDQHKTVYYNGQGQMQYGQQNVNGHWYLFDSKTGAMKTGWQYISNQHKTVYYNSQGQMVYGKQVIAGKTYYFDTKTGRKL

Key:
dsr3510ΔC-term = target: T1, dsr3510ΔC-term (Liquorilactobacillus nagelii, UniProt A0A3Q8CN51); assay: Michaelis-Menten fit, released fructose (D-fructose/D-glucose assay kit); assay type: biochemical; settings: pH 5.0, 30 °C, 0.05 M sodium acetate, 1 mM CaCl2; crude enzyme extract, 2500 µg/mL protein
T1 construct: gene BSQ50_03510
Excerpt: Michaelis-Menten fit, released fructose (D-fructose/D-glucose assay kit) on dsr3510ΔC-term

[1] = substrate: OC[C@H]1O[C@@](CO)(O[C@H]2O[C@H](CO)[C@@H](O)[C@H](O)[C@H]2O)[C@@H](O)[C@@H]1O; assay: as above; assay type: biochemical, Liquorilactobacillus nagelii; settings: pH 5.0, 30 °C, 0.05 M sodium acetate, 1 mM CaCl2, crude enzyme extract, 500 µg/mL protein
Excerpt: Michaelis-Menten fit, released fructose (D-fructose/D-glucose assay kit) on dsr3510 (full-length L. nagelii TMW 1.1827 dextransucrase)

Row | Molecule | Km (dsr3510ΔC-term) [mM] | Km [1] [mM] | Vmax [1] [µM/min]
1 | OC[C@H]1O[C@@](CO)(O[C@H]2O[C@H](CO)[C@@H](O)[C@H](O)[C@H]2O)[C@@H](O)[C@@H]1O [sucrose] | 12.6 ± 0.73 |  | 
2 | B1 |  | 10.97 ± 1.56 | 200
